The values below come from the Human Domainome abundance scans (Beltran et al. 2025).

± gives the uncertainty stated by the source.

A short description of this data set: abundance fitness (aPCA) (normalised: wild type 0, dead -1); higher = more abundant; growth selection in yeast, the domain comes from the species named. Conditions: Homo sapiens.
Regarding “NEDD4-like E3 ubiquitin-protein ligase WWP2 G482E, O00308”, the abundance fitness was -0.064 ± 0.049.
In the case of “NEDD4-like E3 ubiquitin-protein ligase WWP2 G482F, O00308” it was -0.124 ± 0.06; in that of “NEDD4-like E3 ubiquitin-protein ligase WWP2 G482H, O00308”, -0.019 ± 0.076; in that of “NEDD4-like E3 ubiquitin-protein ligase WWP2 G482I, O00308”, -0.077 ± 0.046.
In the case of “NEDD4-like E3 ubiquitin-protein ligase WWP2 G482K, O00308” it was -0.037 ± 0.068; in that of “NEDD4-like E3 ubiquitin-protein ligase WWP2 G482L, O00308”, -0.086 ± 0.044; in that of “NEDD4-like E3 ubiquitin-protein ligase WWP2 G482M, O00308”, -0.121 ± 0.061.
For the substance “NEDD4-like E3 ubiquitin-protein ligase WWP2 G482N, O00308”, the abundance fitness was -0.007 ± 0.039.
Then “NEDD4-like E3 ubiquitin-protein ligase WWP2 G482P, O00308”, with -0.032 ± 0.07; and “NEDD4-like E3 ubiquitin-protein ligase WWP2 G482Q, O00308”, with -0.009 ± 0.057; and “NEDD4-like E3 ubiquitin-protein ligase WWP2 G482R, O00308”, with -0.097 ± 0.043.
Take “NEDD4-like E3 ubiquitin-protein ligase WWP2 G482S, O00308”: the abundance fitness is -0.025 ± 0.033.
With “NEDD4-like E3 ubiquitin-protein ligase WWP2 G482T, O00308”, the abundance fitness was -0.019 ± 0.06.
For the substance “NEDD4-like E3 ubiquitin-protein ligase WWP2 G482V, O00308”, the abundance fitness is -0.108 ± 0.043.
In the case of “NEDD4-like E3 ubiquitin-protein ligase WWP2 G482W, O00308” it was -0.151 ± 0.05; in that of “NEDD4-like E3 ubiquitin-protein ligase WWP2 G482Y, O00308”, -0.089 ± 0.045; in that of “NEDD4-like E3 ubiquitin-protein ligase WWP2 G486A, O00308”, 0.028 ± 0.038.
Then “NEDD4-like E3 ubiquitin-protein ligase WWP2 G486C, O00308”, with -0.023 ± 0.056; and “NEDD4-like E3 ubiquitin-protein ligase WWP2 G486E, O00308”, with 0.044 ± 0.042; and “NEDD4-like E3 ubiquitin-protein ligase WWP2 G486F, O00308”, with -0.205 ± 0.073.
In the case of “NEDD4-like E3 ubiquitin-protein ligase WWP2 G486H, O00308”, the abundance fitness is -0.135 ± 0.062.
With “NEDD4-like E3 ubiquitin-protein ligase WWP2 G486I, O00308”, the abundance fitness was -0.028 ± 0.072.
As for “NEDD4-like E3 ubiquitin-protein ligase WWP2 G486L, O00308”, the abundance fitness was -0.066 ± 0.042.
In the case of “NEDD4-like E3 ubiquitin-protein ligase WWP2 G486M, O00308”, the abundance fitness was -0.01 ± 0.036.
As for “NEDD4-like E3 ubiquitin-protein ligase WWP2 G486N, O00308”, the abundance fitness was -0.177 ± 0.12.
Turning to “NEDD4-like E3 ubiquitin-protein ligase WWP2 G486P, O00308”, the abundance fitness was 0.013 ± 0.049.
For the substance “NEDD4-like E3 ubiquitin-protein ligase WWP2 G486Q, O00308”, the abundance fitness is -0.023 ± 0.054.
On to “NEDD4-like E3 ubiquitin-protein ligase WWP2 G486R, O00308”, for which the abundance fitness is -0.028 ± 0.037.
Then “NEDD4-like E3 ubiquitin-protein ligase WWP2 G486S, O00308”, with -0.041 ± 0.049.
As to “NEDD4-like E3 ubiquitin-protein ligase WWP2 G486V, O00308”, the abundance fitness is -0.01 ± 0.043.
As for “NEDD4-like E3 ubiquitin-protein ligase WWP2 G486W, O00308”, the abundance fitness was -0.187 ± 0.049.
For the substance “NEDD4-like E3 ubiquitin-protein ligase WWP2 G486Y, O00308”, the abundance fitness was -0.239 ± 0.069.
Take “NEDD4-like E3 ubiquitin-protein ligase WWP2 G489A, O00308”: the abundance fitness is -0.007 ± 0.041.
Turning to “NEDD4-like E3 ubiquitin-protein ligase WWP2 G489C, O00308”, the abundance fitness was -0.066 ± 0.031.
As for “NEDD4-like E3 ubiquitin-protein ligase WWP2 G489D, O00308”, the abundance fitness was -0.02 ± 0.053.
In the case of “NEDD4-like E3 ubiquitin-protein ligase WWP2 G489E, O00308” it was 0.04 ± 0.049; in that of “NEDD4-like E3 ubiquitin-protein ligase WWP2 G489F, O00308”, -0.028 ± 0.078.
In the case of “NEDD4-like E3 ubiquitin-protein ligase WWP2 G489H, O00308” it was -0.155 ± 0.078.
With “NEDD4-like E3 ubiquitin-protein ligase WWP2 G489I, O00308”, the abundance fitness was -0.035 ± 0.078.
Then “NEDD4-like E3 ubiquitin-protein ligase WWP2 G489K, O00308”, with 0.001 ± 0.069; and “NEDD4-like E3 ubiquitin-protein ligase WWP2 G489L, O00308”, with -0.039 ± 0.055; and “NEDD4-like E3 ubiquitin-protein ligase WWP2 G489M, O00308”, with -0.048 ± 0.07.
For the substance “NEDD4-like E3 ubiquitin-protein ligase WWP2 G489N, O00308”, the abundance fitness is -0.008 ± 0.033.
Turning to “NEDD4-like E3 ubiquitin-protein ligase WWP2 G489P, O00308”, the abundance fitness is -0.049 ± 0.041.
For “NEDD4-like E3 ubiquitin-protein ligase WWP2 G489Q, O00308”, the abundance fitness is -0.157 ± 0.077.
With “NEDD4-like E3 ubiquitin-protein ligase WWP2 G489R, O00308”, the abundance fitness is -0.035 ± 0.036.
Substance “NEDD4-like E3 ubiquitin-protein ligase WWP2 G489S, O00308” displayed an abundance fitness of 0.039 ± 0.05.
Consider “NEDD4-like E3 ubiquitin-protein ligase WWP2 G489T, O00308”, for which the abundance fitness was 0.002 ± 0.066.
As to “NEDD4-like E3 ubiquitin-protein ligase WWP2 G489V, O00308”, the abundance fitness was -0.031 ± 0.048.
In the case of “NEDD4-like E3 ubiquitin-protein ligase WWP2 G489W, O00308” it was -0.163 ± 0.057; in that of “NEDD4-like E3 ubiquitin-protein ligase WWP2 G489Y, O00308”, -0.334 ± 0.087; in that of “NEDD4-like E3 ubiquitin-protein ligase WWP2 H465A, O00308”, -0.378 ± 0.05.
In the case of “NEDD4-like E3 ubiquitin-protein ligase WWP2 H465C, O00308”, the abundance fitness is -0.411 ± 0.067.
“NEDD4-like E3 ubiquitin-protein ligase WWP2 H465D, O00308”: the abundance fitness is -0.461 ± 0.06.
Regarding “NEDD4-like E3 ubiquitin-protein ligase WWP2 H465E, O00308”, the abundance fitness was -0.396 ± 0.062.
Then “NEDD4-like E3 ubiquitin-protein ligase WWP2 H465I, O00308”, with -0.207 ± 0.08; and “NEDD4-like E3 ubiquitin-protein ligase WWP2 H465K, O00308”, with -0.216 ± 0.064.
As for “NEDD4-like E3 ubiquitin-protein ligase WWP2 H465L, O00308”, the abundance fitness was -0.315 ± 0.045.
Regarding “NEDD4-like E3 ubiquitin-protein ligase WWP2 H465M, O00308”, the abundance fitness was -0.357 ± 0.072.
As to “NEDD4-like E3 ubiquitin-protein ligase WWP2 H465N, O00308”, the abundance fitness is -0.208 ± 0.086.
“NEDD4-like E3 ubiquitin-protein ligase WWP2 H465P, O00308”: the abundance fitness is -0.556 ± 0.088.
In the case of “NEDD4-like E3 ubiquitin-protein ligase WWP2 H465Q, O00308” it was -0.332 ± 0.042.
As to “NEDD4-like E3 ubiquitin-protein ligase WWP2 H465R, O00308”, the abundance fitness is -0.278 ± 0.036.
In the case of “NEDD4-like E3 ubiquitin-protein ligase WWP2 H465S, O00308”, the abundance fitness was -0.247 ± 0.034.
With “NEDD4-like E3 ubiquitin-protein ligase WWP2 H465T, O00308”, the abundance fitness was -0.292 ± 0.061.
Take “NEDD4-like E3 ubiquitin-protein ligase WWP2 H465V, O00308”: the abundance fitness is -0.357 ± 0.05.
With “NEDD4-like E3 ubiquitin-protein ligase WWP2 H465W, O00308”, the abundance fitness was -0.422 ± 0.042.
In the case of “NEDD4-like E3 ubiquitin-protein ligase WWP2 H465Y, O00308” it was -0.386 ± 0.064; in that of “NEDD4-like E3 ubiquitin-protein ligase WWP2 I441A, O00308”, -0.113 ± 0.053; in that of “NEDD4-like E3 ubiquitin-protein ligase WWP2 I441C, O00308”, -0.166 ± 0.078.
In the case of “NEDD4-like E3 ubiquitin-protein ligase WWP2 I441D, O00308” it was -0.419 ± 0.14.
Regarding “NEDD4-like E3 ubiquitin-protein ligase WWP2 I441F, O00308”, the abundance fitness is -0.13 ± 0.059.
In the case of “NEDD4-like E3 ubiquitin-protein ligase WWP2 I441H, O00308” it was -0.204 ± 0.065; in that of “NEDD4-like E3 ubiquitin-protein ligase WWP2 I441K, O00308”, 0.052 ± 0.04; in that of “NEDD4-like E3 ubiquitin-protein ligase WWP2 I441L, O00308”, -0.198 ± 0.054.
Then “NEDD4-like E3 ubiquitin-protein ligase WWP2 I441N, O00308”, with 0.137 ± 0.071.
In the case of “NEDD4-like E3 ubiquitin-protein ligase WWP2 I441P, O00308”, the abundance fitness is -0.503 ± 0.083.
On to “NEDD4-like E3 ubiquitin-protein ligase WWP2 I441Q, O00308”, for which the abundance fitness is -0.035 ± 0.068.
For the substance “NEDD4-like E3 ubiquitin-protein ligase WWP2 I441S, O00308”, the abundance fitness was -0.123 ± 0.044.
